This data set concerns the molecule itself. The data set is described as follows: light scattering.

B1: Bacillus subtilis MreB A277Q K305D double mutant, Strep-tagged (natural protein)
chain: MFGIGARDLGIDLGTANTLVFVKGKGIVVREPSVVALQTDTKSIVAVGNDAKNMIGRTPGNVVALRPMKDGVIADYETTATMMKYYINQAIKNKGMFARKPYVMVCVPSGITAVEERAVIDATRQAGARDAYPIEEPFAAAIGANLPVWEPTGSMVVDIGGGTTEVAIISLGGIVTSQSIRVAGDEMDDAIINYIRKTYNLMIGDRTAEAIKMEIGSAEAPEESDNMEIRGRDLLTGLPKTIEITGKEISNALRDTVSTIVEAVKSTLEKTPPELAQDIMDRGIVLTGGGALLRNLDKVISEETDMPVLIAEDPLDCVAIGTGKALEHIHLFKGKTR
Take B1: the binding result is “binds”.
